These results are taken from publication PMC1140373 (Nucleic Acids Research, 2005).

For series [1], the target named is T1, Glutathione S-transferase (GST)-tagged human XPB (human, UniProt P19447 1-782). The series can be described thus: cell-based or functional assay.
The series “co-IP” concerns the molecule itself. The series can be described thus: co-IP.
The target in series [2] is T2, Human TFIIEα, wild type, N-terminal FLAG tag (human, UniProt P29083 1-439).
T2 sequence (looked up): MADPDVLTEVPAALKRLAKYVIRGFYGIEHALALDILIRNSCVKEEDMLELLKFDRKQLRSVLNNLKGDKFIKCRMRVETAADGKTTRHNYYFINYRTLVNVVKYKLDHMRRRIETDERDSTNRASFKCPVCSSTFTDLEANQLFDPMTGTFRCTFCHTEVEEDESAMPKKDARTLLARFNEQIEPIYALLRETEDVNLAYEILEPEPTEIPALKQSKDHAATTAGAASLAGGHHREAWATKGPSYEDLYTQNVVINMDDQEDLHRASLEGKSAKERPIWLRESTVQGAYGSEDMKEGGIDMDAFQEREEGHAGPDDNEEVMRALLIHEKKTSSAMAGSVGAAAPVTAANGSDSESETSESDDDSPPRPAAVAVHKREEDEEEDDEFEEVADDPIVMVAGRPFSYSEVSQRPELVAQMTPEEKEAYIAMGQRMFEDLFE
The series can be described thus: pull-down.

Series [3] deals with T1, Glutathione S-transferase (GST)-tagged …. As to the kind of experiment: pull-down.
Series [4] deals with T2, Human TFIIEα, wild type, N-terminal …. The series can be described thus: co-IP.
Series [5] has as its target T3, FLAG-tagged wild type TFIIEβ (human, UniProt P29084 1-291).
T3 sequence (looked up): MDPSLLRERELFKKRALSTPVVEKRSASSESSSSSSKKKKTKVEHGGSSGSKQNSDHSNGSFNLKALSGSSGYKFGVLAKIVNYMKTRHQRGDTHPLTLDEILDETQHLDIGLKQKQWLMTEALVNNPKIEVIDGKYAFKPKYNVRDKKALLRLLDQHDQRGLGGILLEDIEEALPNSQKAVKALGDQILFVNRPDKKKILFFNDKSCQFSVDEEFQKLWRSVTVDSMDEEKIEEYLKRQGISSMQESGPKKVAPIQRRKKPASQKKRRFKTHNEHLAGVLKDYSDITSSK
As to the kind of experiment: co-IP.

Changes are numbered by the printed parent chain. In names and notes the source's numbering stands.

T1 sequence (P19447 whole entry): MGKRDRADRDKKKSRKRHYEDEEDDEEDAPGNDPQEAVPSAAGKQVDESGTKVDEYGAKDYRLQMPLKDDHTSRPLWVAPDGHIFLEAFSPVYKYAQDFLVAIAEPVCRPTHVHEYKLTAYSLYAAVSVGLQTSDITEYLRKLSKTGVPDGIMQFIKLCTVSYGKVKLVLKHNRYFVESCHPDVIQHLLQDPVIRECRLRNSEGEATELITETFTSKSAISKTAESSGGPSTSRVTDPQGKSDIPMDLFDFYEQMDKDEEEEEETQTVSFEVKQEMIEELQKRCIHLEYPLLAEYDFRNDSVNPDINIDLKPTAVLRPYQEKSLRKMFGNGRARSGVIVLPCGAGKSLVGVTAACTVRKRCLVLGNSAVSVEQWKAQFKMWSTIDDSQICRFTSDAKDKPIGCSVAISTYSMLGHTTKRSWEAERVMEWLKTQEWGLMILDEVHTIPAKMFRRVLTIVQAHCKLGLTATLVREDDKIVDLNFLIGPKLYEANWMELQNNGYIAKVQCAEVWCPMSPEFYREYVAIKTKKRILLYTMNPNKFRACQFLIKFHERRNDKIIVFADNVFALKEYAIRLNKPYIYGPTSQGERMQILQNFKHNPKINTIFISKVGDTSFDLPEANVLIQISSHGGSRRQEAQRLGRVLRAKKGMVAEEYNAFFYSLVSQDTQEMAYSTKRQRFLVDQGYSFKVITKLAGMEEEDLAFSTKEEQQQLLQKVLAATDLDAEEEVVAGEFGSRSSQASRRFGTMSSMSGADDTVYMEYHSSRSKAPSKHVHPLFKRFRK

B1: Human TFIIEβ, wild type, His6 tagged (natural protein, UniProt P29084 1-291, looked up)
chain: T3 sequence (looked up)
Take B1: in series [1], the “stimulation of XPB helicase activity, 2 μg of XPB and 1.2 μg of wild-type TFIIEβ” value turned out to be 3 fold. In addition, the binding result (in “co-IP”; in series [2]) was “binds” each time.

B2: Human TFIIEβ I171S, His6 tagged (natural protein, UniProt P29084 1-291, looked up)
chain: T3 sequence (looked up) with I171S
Consider B2, for which the binding result in series [3], in series [4] and in series [5] was “binds” throughout.

B3: Human TFIIEβ I189S, His6 tagged (natural protein, UniProt P29084 1-291, looked up)
chain: T3 sequence (looked up) with I189S
Turning to B3, the binding result in series [3], in series [4] and in series [5] was “binds” in each case.
